Experimental data taken from paper doi:10.1101/2024.12.10.627806.

How the values were obtained:
[1] = molecular target: head-tail joining protein (80α gp50) (Staphylococcus aureus bacteriophage 80α); assay: cryo-EM structure; focused reconstruction of the neck of purified SaPI1 virions with C6 symmetry, 3.1 Å; AlphaFold2 models fitted and refined in ISOLDE; virions in 20 mM Tris-HCl pH 7.8, 50 mM NaCl, 4 mM CaCl2, 1 mM MgSO4, treated with Benzonase
[2] = molecular target: head-to-tail connector protein (80α gp49) (Staphylococcus aureus bacteriophage 80α); assay: as above
[3] = molecular target: major tail protein (80α gp53) (Staphylococcus aureus bacteriophage 80α); assay: as above
[4] = molecular target: portal protein (80α gene product 42) (Staphylococcus aureus bacteriophage 80α); assay: as above
[5] = molecular target: tail terminator protein (80α gp52) (Staphylococcus aureus bacteriophage 80α); assay: as above
[6] = molecular target: tape measure protein (80α gp56) (Staphylococcus aureus bacteriophage 80α); assay: cryo-EM structure; asymmetric (C1) reconstruction of the neck of purified SaPI1 virions after symmetry expansion and masked classification on the tail interior, 3.4 Å (3.54 Å in the methods); AlphaFold2/AlphaFold3 models fitted

head-tail joining protein (80α gp50) (natural protein)
stoichiometry N [1]: 6

head-to-tail connector protein (80α gp49) (natural protein)
stoichiometry N [2]: 12

major tail protein (80α gp53) (natural protein)
stoichiometry N [3]: 6

portal protein (80α gene product 42) (natural protein)
stoichiometry N [4]: 12

tail terminator protein (80α gp52) (natural protein)
stoichiometry N [5]: 6

tape measure protein (80α gp56) (natural protein)
stoichiometry N [6]: 3
